Assay results: paper PMC12328743
Bridges are numbered along the chain shown (N, C = ends). Where no end group is shown, it is not given here.

Molecular target: staphylococcal TMcin-G1905 (mature transmembrane helix-containing bacteriocin peptide, processed product of TmcA) (Staphylococcus aureus (isolate G1905))

B1: staphylococcal TMcin-G1905 (mature transmembrane helix-containing bacteriocin peptide, processed product of TmcA) (peptide)
chain: AWFVVLLAAILVFATAIFAGLTIWCVVNQHGKFTGNWNWHIKGVSLDVECKR
modifications: disulfide 25-50
  discrete stepwise conductance events in voltage-clamped planar lipid bilayers (DPhPC, 150 mM KCl) after adding purified TMcin-G1905; median conductance: 10.8 nS
